The assay addresses bovine thyroglobulin (natively iodinated) (bovine) (UniProt P01267). The assay is described as follows: cryo-EM structure; single-particle cryoEM; Tg at 7 mg/ml in 10 mM HEPES pH 7.4, 100 mM NaCl with 0.2% (w/v) CHAPS; vitrified at 4°C; C2 symmetry expansion, focused refinements.

What is called stoichiometry N is the number of molecules, sites or subunits per partner or assembly. Consider “bovine thyroglobulin (natively iodinated) (from UniProt P01267 20-2769) (natural protein)”, for which the stoichiometry N is 2.

(Values after paper PMC8561740.)
